The results in this text go back to article PMC13170675, “A Wnt-induced conformational phospho-switch in DVL3 controls association with Frizzled receptors and Wnt/β-catenin signaling” (Science Advances, 2026).

The data set concerns the molecule itself. The experiment in a line: native MS; native ESI-MS, 200 mM ammonium acetate buffer (pH 7.4); monomeric species are the main ones, homodimeric species detected.

B1: hDVL3 PDZ-IDR2-DEP (amino acids 243 to 496), nonphosphorylated (domain or fragment, human, UniProt Q92997 243-496, looked up)
chain: MSLNIITVTLNMEKYNFLGISIVGQSNERGDGGIYIGSIMKGGAVAADGRIEPGDMLLQVNEINFENMSNDDAVRVLREIVHKPGPITLTVAKCWDPSPRGCFTLPRSEPIRPIDPAAWVSHTAAMTGTFPAYGMSPSLSTITSTSSSITSSIPDTERLDDFHLSIHSDMAAIVKAMASPESGLEVRDRMWLKITIPNAFIGSDVVDWLYHNVEGFTDRREARKYASNLLKAGFIRHTVNKITFSEQCYYIFGD
notes: human Dishevelled 3 (DVL3), PDZ domain, IDR2 and DEP domain, amino acids 243 to 496; source: E. coli BL21 (DE3), purified (Ni-NTA, TEV cleavage, second Ni-NTA, anion exchange, SEC); not shown: His6, N-terminal, cleaved
In the case of B1, the binding result is “binds”.

B2: phosphorylated hDVL3 PDZ-IDR2-DEP (amino acids 243 to 496) (domain or fragment, human, UniProt Q92997 243-496, looked up)
chain: B1 chain
modifications: 8 to 19 phosphates present (native ESI-MS), on S/T residues of IDR2, by CK1ε
notes: human Dishevelled 3 (DVL3), PDZ domain, phosphorylated IDR2 and DEP domain, amino acids 243 to 496; also called PDZ-pIDR2-DEP; source: E. coli BL21 (DE3), purified; phosphorylated by CK1ε; not shown: His6, N-terminal, cleaved
Take B2: the binding result was “binds”.
